Experimental data: PMC5564220

Columns and labels:
[1] = molecular target: Rvb1/his-Rvb2 complex (S. cerevisiae) (UniProt Q03940); experiment: native MS
[2] = molecular target: Rvb1ΔDII/Rvb2ΔDII complex (S. cerevisiae) (UniProt Q03940); experiment: native MS

Chain of Rvb1ΔDII/Rvb2ΔDII complex (Q03940 whole entry, stated change not applied): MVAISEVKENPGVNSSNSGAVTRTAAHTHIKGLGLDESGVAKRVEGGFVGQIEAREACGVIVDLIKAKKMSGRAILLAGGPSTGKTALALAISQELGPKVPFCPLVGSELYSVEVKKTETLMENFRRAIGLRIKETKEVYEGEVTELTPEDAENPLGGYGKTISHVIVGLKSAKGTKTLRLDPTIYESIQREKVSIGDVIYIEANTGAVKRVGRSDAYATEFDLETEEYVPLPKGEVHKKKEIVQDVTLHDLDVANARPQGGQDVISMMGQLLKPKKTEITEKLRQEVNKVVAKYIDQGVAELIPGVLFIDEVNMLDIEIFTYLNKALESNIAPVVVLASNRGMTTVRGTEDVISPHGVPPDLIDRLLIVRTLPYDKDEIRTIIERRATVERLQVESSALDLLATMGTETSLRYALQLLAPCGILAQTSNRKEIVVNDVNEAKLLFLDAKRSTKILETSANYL
Chain of Rvb1ΔDII/Rvb2ΔDII complex (Q12464 whole entry, stated change not applied): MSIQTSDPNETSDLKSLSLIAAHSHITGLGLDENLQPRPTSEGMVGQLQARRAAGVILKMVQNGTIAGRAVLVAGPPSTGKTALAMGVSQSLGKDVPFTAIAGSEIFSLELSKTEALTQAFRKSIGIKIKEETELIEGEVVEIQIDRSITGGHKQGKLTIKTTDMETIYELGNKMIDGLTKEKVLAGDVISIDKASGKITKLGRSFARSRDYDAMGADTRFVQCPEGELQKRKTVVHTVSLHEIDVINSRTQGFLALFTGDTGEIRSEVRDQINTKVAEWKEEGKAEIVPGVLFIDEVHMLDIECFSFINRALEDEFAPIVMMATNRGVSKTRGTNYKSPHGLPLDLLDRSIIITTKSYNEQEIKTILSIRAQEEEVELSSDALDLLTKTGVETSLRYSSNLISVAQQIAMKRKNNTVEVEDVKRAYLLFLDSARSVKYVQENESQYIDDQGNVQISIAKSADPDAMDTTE

Substance | percent of hexamers in the population [1] [%] | percent of the dodecamer dissociated into hexamers [1] [%] | percent of dodecamer in the population [2] [%]
Rvb1/his-Rvb2 complex (from UniProt Q03940 1-463; Q12464 1-471) | 0 | 14 | 
Rvb1ΔDII/Rvb2ΔDII complex (from UniProt Q03940 1-463; Q12464 1-471) |  |  | 3
